Target: T1, MHP14+ meganuclease (single-chain engineered I-CreI) (artificial)
T1 chain: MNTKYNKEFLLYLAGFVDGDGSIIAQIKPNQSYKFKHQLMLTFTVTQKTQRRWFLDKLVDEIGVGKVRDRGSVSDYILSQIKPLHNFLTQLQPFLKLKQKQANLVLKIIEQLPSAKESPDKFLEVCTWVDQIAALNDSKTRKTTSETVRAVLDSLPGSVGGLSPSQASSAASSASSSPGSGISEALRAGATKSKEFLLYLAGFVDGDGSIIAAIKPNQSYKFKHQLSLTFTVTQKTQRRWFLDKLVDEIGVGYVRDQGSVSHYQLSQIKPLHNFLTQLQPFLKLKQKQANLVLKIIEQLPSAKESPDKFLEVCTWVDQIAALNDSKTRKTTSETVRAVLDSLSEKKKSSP
Test: cleavage_in_vitro; depends on reaction temperature
Settings: tags: expressed from pQE80 in E. coli, Ni-NTA purified
Method: To generate material for the capture of genomic variant recognition sites, in vitro assays were carried out with 114 nM of purified meganuclease protein isolated as described in Example 2 and 6.07 μg of purified maize genomic DNA at 32° C. for 80 minutes in a final volume of 80 μl in the presence of digestion buffer (50 mM Tris-HCl (pH 7.9), 100 mM NaCl, 10 mM MgCl₂, 1 mM DTT, […]). After 80 minutes, the entire reaction was stopped with an equal volume of stop buffer (100 mM Tris-HCl (pH 8.0), 600 mM NaCl, 2% SDS, 100 mM EDTA, 1 mg of proteinase K per ml) and incubated at 50° C. for 30-45 minutes. Stopped reactions were purified by phenol/chloroform extraction and ethanol precipitated in the presence of 0.2 M NaCl. Precipitated genomic DNA was washed twice with 70% ethanol, dried, and resuspended in 34 μl of water. […]

B1: MHP14+ maize genomic variant site (dsDNA)
DNA 1: CAAGAAGAAGCACGTCAGCTTA
DNA 2: TAAGCTGACGTGCTTCTTCTTG
relative cleavage activity: ~3 fold vs intended site
